# Experimental data taken from paper doi:10.1101/2020.05.04.076190.
# B1: CACGTG E-box probe (dsDNA)
# DNA 1: GCGCGGGCACGTGGGCCGGGG
# DNA 2: CCCCGGCCCACGTGCCCGCGC
# Target: MycWT bHLH-LZ;Max bHLH-LZ (p21 isoform) (human?;, UniProt P01106;P61244 ;, |)
# Test: EMSA
binder,measurement,value
B1,binding result,binds
